What was measured:
[1] = target: APC mutant QGNSEDY (ALL) (human) (UniProt P04070); assay: cell-based or functional assay
[2] = target: wild-type human activated protein C (recombinant, thrombin-activated) (human) (UniProt P04070); assay: cell-based or functional assay

- APTT clotting time in protein S deficient human plasma with APC, in absence of protein S [1]: 160 s
- APTT clotting time in protein S deficient human plasma with APC, protein S added [1]: 350 s
- APTT clotting time in protein S deficient human plasma with APC, highest protein S concentration [2]: 150 s
- APTT clotting time in protein S deficient human plasma with APC, in absence of protein S [2]: 100 s
Substance: human protein S (from UniProt P07225 42-676)
